Here are results for 13 molecules from patent publication US20240059799A1 (Pfizer, published 2024).

Numbering of substitutions follows the chain as printed.

T1: recombinant human TL1A (human, UniProt O95150 71-251)
T1 construct: Homotrimeric cytokine; biotinylated with Sulfo-NHS-biotin where captured for SPR, coated unlabelled in ELISA, soluble in bioassays; also called TNFSF15
T1 chain: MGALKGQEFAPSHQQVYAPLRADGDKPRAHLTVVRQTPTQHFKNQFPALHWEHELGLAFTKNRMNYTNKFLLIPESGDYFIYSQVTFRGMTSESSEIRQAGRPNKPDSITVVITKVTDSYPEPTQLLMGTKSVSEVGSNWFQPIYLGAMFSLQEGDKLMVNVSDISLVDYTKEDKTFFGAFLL

T2: full-length human TL1A on CHO-K1 cells (human, UniProt O95150 1-251)
T2 construct: whole, on cells; also called cells over-expressing human TL1A
T2 sequence (looked up): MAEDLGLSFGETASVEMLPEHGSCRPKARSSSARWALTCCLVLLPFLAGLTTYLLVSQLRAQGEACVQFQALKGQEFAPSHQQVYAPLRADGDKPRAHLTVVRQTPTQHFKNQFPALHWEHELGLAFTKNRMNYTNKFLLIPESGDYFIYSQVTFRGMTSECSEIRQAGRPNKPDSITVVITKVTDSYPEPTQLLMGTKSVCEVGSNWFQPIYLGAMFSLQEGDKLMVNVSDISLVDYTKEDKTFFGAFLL

B1: TL1A-0370 (bispecific antibody)
heavy 1: QVQLVQSGAEVKKPGASVKVSCKASGYDYTYYGISWVRQAPGQGLEWMGWISTYNTGTHYAPSLQGRVTMTTDTSTSTAYMELRSLRSDDTAVYYCARESYYGSGAFRGGMDVWGQGTTVTVSSASTKGPSVFPLAPSSKSTSGGTAALGCLVKDYFPEPVTVSWNSGALTSGVHTFPAVLQSSGLYSLSSVVTVPSSSLGTQTYICNVNHKPSNTKVDKKVEPKSCDKTHTCPPCPAPEAAGAPSVFLFPPKPKDTLMISRTPEVTCVVVDVSHEDPEVKFNWYVDGVEVHNAKTKPREEQYNSTYRVVSVLTVLHQDWLNGKEYKCKVSNKALPAPIEKTISKAKGQPREPQVCTLPPSREEMTKNQVSLWCLVKGFYPSDIAVEWESNGQPENNYKTTPPVLDSDGSFFLYSKLTVDKSRWQQGNVFSCSVLHEALHSHYTQKSLSLSPGK
heavy 2: QVQLVQSGAEVKKPGASVKVSCKASGYTFTSYGISWVRQAPGQGLEWMGWISAYNGNTNYAQKLQGRVTMTTDTSTSTAYMELRSLRSDDTAVYYCARESSYGSEAFRAGMDVWGQGTTVTVSS
light: not shown
notes: also called TL1A-0370 MBsAb; not shown: human IgG1 constant region with effector-minimizing, KiH and LS mutations
B2: TL1A-0371 (bispecific antibody)
heavy 1: B1 heavy 1
heavy 2: not shown
light: not shown
notes: also called TL1A-0371 MBsAb; not shown: human IgG1 constant region with effector-minimizing, KiH and LS mutations
B3: TL1A-0326 (antibody, human IgG1, kappa)
heavy 1: B1 heavy 1
heavy 2: EPKSSDKTHTCPPCPAPEAAGAPSVFLFPPKPKDTLMISRTPEVTCVVVDVSHEDPEVKFNWYVDGVEVHNAKTKPREEQYNSTYRVVSVLTVLHQDWLNGKEYKCKVSNKALPAPIEKTISKAKGQPREPQVYTLPPCREEMTKNQVSLSCAVKGFYPSDIAVEWESNGQPENNYKTTPPVLDSDGSFFLVSKLTVDKSRWQQGNVFSCSVLHEALHSHYTQKSLSLSPGK
light: not shown
notes: one-armed (monovalent) antibody derived from TL1A-0260
B4: TL1A-0374 (bispecific antibody)
heavy 1: B1 heavy 1
heavy 2: not shown
light: not shown
notes: also called TL1A-0374 MBsAb; not shown: human IgG1 constant region with effector-minimizing, KiH and LS mutations
B5: TL1A-0375 (bispecific antibody)
heavy 1: B1 heavy 1
heavy 2: not shown
light: not shown
notes: also called TL1A-0375 MBsAb; not shown: human IgG1 constant region with effector-minimizing, KiH and LS mutations
B6: TL1A-0373 (bispecific antibody)
heavy 1: B1 heavy 1
heavy 2: not shown
light: not shown
notes: not shown: human IgG1 constant region with effector-minimizing, KiH and LS mutations
B7: [xTL1A]-0336 (antibody, human IgG1, kappa, V domains shown)
VH: B1 heavy 2 with S101Y
VL: DIQMTQSPSSLSASVGDRVTITCRASQSVSSYLAWYQQKPGKAPKLLIYDASNRATGVPSRFSGSGSGTDFTLTISSLQPEDFATYYCQQRSNWPWTFGQGTKVEIKR
notes: bivalent disabled antibody, IgG1 effector-function-minimized/kappa
B8: [xTL1A]-0352 (antibody, human IgG1, kappa, V domains shown)
VH: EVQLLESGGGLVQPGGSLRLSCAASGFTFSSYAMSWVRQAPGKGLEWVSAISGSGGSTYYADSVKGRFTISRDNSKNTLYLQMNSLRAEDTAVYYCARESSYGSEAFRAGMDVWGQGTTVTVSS
VL: B7 VL
notes: as for B7
B9: [xTL1A]-0363 (antibody, human IgG1, kappa, V domains shown)
VH: not shown
VL: B7 VL
notes: as for B7
B10: [xTL1A]-0358 (antibody, human IgG1, kappa, V domains shown)
VH: not shown
VL: B7 VL
notes: as for B7
B11: [xTL1A]-0338 (antibody, human IgG1, kappa, V domains shown)
VH: B1 heavy 2 with A109G
VL: B7 VL
notes: as for B7
B12: [xTL1A]-0347 (antibody, human IgG1, kappa, V domains shown)
VH: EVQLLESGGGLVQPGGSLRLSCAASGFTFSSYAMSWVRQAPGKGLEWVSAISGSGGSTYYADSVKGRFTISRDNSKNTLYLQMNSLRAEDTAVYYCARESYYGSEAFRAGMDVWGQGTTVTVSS
VL: B7 VL
notes: as for B7
B13: [xTL1A]-0349 (antibody, human IgG1, kappa, V domains shown)
VH: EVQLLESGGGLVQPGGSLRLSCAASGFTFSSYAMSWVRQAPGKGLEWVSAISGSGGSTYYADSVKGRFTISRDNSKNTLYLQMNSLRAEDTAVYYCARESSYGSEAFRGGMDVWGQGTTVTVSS
VL: B7 VL
notes: as for B7

For one experiment, the target named is T1, recombinant human TL1A. As to the kind of experiment: SPR, recombinant human TL1A. For orientation: SPR reads the build-up and loss of mass on a sensor chip optically.
The Kd is the free concentration of one partner at which half of the binding sites on the other are occupied at equilibrium, for simple one-to-one binding. As a reminder, the koff is a measure of how fast the partners let go of each other. As a reminder, the kon is the second-order rate constant of association. For the molecule B1, the Kd was 0.303 nM, the off-rate constant (koff) stood at 5.73e-05 s⁻¹ and the kon turned out to be 190000 M⁻¹ s⁻¹.

Take B2: the Kd came out at 0.261 nM, the koff is 4.36e-05 s⁻¹ and the kon was found to be 168000 M⁻¹ s⁻¹.

Consider B3, for which the Kd came to 0.292 nM, the koff was found to be 5.84e-05 s⁻¹ and the kon came to 200000 M⁻¹ s⁻¹.

On to B4, for which the Kd was 0.268 nM, the koff is 5.59e-05 s⁻¹ and the kon came out at 209000 M⁻¹ s⁻¹.

For the molecule B5, the Kd is 0.232 nM, the koff was 4.9e-05 s⁻¹ and the kon worked out at 211000 M⁻¹ s⁻¹.

Take B6: the Kd stood at 0.285 nM, the koff is 4.95e-05 s⁻¹ and the kon is 173000 M⁻¹ s⁻¹.

The next experiment deals with T2, full-length human TL1A on CHO-K1 cells. Put plainly: flow cytometry on CHO-K1 cells stably expressing full-length human TL1A, PE anti-human IgG, median fluorescent intensity. As to the method: A cell binding assay was performed to examine if the panel of [xTL1A] bivalent antibody variants could bind to human TL1A over-expressed on the cell surface. […] [xTL1A] bivalent antibody variants were incubated with cells on ice for 30-60 minutes at a concentration of either 1 μg/mL or 20 μg/mL. Cells were pelleted by centrifugation at 1500 RPM for 5 minutes at 4° C. and supernatant was discarded by aspiration. The cells were washed three times with DPBS with 4% FBS buffer as described. Cells were resuspended in 100 μL of PE-anti-human IgG (Life technologies Catalog number H10104) diluted 1:500 in DPBS with 4% FBS buffer and incubated on ice for 15 minutes. Cells were washed three times as described and resuspended in 200 μL of DPBS with 4% FBS buffer, then run on a flow cytometry instrument.
On to B7, for which the binding result is listed as “no binding (tested: 20 ug/mL)”.

On to B8, for which the binding result was “no binding (tested: 20 ug/mL)”.

As to B9, the binding result is recorded as “no binding (tested: 20 ug/mL)”.

Take B10: the binding result was “no binding (tested: 20 ug/mL)”.

On to B11, for which the binding result is on record as “no binding (tested: 20 ug/mL)”.

Turning to B12, the binding result is listed as “no binding (tested: 20 ug/mL)”.

On to B13, for which the binding result is on record as “no binding (tested: 20 ug/mL)”.

The next experiment addresses T3, human serum albumin (human, UniProt P02768 25-609).
T3 construct: also called HSA
As to the kind of experiment: direct binding ELISA on plate-coated HSA (1 ug/mL), anti-human IgG-Fc HRP, OD450. As to the method:
(§1) For the direct binding ELISA method to HSA or BSA, 96-well high binding plates (Corning, product number 3590) were coated with 1 μg/mL recombinant HSA or BSA in 100 μL/well in PBS overnight at 4° C. Plates were then blocked in PBS+0.02% casein solution and washed with PBS+0.05% Tween-20 following standard ELISA protocol. […] Plates were washed with PBS+0.05% Tween-20 following standard ELISA protocol, and goat anti-human IgG-Fc HRP conjugated secondary antibody (Pierce, #31413) diluted to 1:10,000 in assay buffer was added to plates and incubated for 1 hour at room temperature. Next, the plates were washed with PBS+0.05% Tween-20 following standard ELISA protocol, and then TMB substrate (BioFX Laboratories, catalog number TMBW-0100-01) was added to plates.
(§2) Reactions were stopped after approximately 5 minutes by adding 0.18 M ortho-phosphoric acid to each well and absorbance was read at 450 nm. […] For this method, samples diluted to 0.3 mg/mL were dispensed into the sample tray of a MicroCal VP-Capillary DSC with Autosampler (Malvern Instruments, Inc.), equilibrated for 5 minutes at 10° C. and then scanned up to 110° C. at a rate of 100° C. per/hour. A filtering period of 16 seconds was selected. Raw data was baseline corrected and the protein concentration was normalized. Origin Software 7.0 (Origin Lab Corporation, Northampton, MA) was used to fit the data to an MN2-State Model with an appropriate number of transitions.
Background: ELISA stands for enzyme-linked immunosorbent assay.
B1: the binding result is “no binding (tested: 1e-6 M)”.

B2: the binding result is given as “no binding (tested: 1e-6 M)”.

B3: the binding result is recorded as “no binding (tested: 1e-6 M)”.

In the case of B4, the binding result is on record as “no binding (tested: 1e-6 M)”.

With B5, the binding result is recorded as “no binding (tested: 1e-6 M)”.

Take B6: the binding result is “no binding (tested: 1e-6 M)”.

A further experiment addresses T1, recombinant human TL1A. As to the kind of experiment: direct binding ELISA on plate-coated recombinant human TL1A (1 ug/mL), anti-human IgG-Fc HRP, OD450. As to the method: For the direct binding ELISA, 96-well high binding plates (Corning, product number 3590) were coated with 1 μg/mL recombinant TL1A in 100 μL/well in PBS overnight at 4° C. Plates were then blocked in PBS+0.02% casein solution and washed with PBS+0.05% Tween-20 following standard ELISA protocol. […] Plates were washed with PBS+0.05% Tween-20 following a standard ELISA protocol, and goat anti-human IgG-Fc HRP conjugated secondary antibody (Pierce, catalog number 31413) diluted to 1:10,000 in assay buffer was added to plates and incubated for 1 hour at room temperature. Next, the plates were washed with PBS+0.05% Tween-20 following a standard ELISA protocol, and then TMB substrate (BioFX Laboratories, catalog number TMBW-0100-01) was added to the plates. Reactions were stopped after approximately 5 minutes by adding 0.18 M ortho-phosphoric acid to each well and absorbance was read at 450 nm.
For B7, the binding result was “no binding (tested: 33.3 nM)”.

Regarding B8, the binding result is “no binding (tested: 33.3 nM)”.

Consider B9, for which the binding result was “no binding (tested: 33.3 nM)”.

Take B10: the binding result was “no binding (tested: 33.3 nM)”.

Consider B11, for which the binding result is listed as “no binding (tested: 33.3 nM)”.

B12: the binding result is listed as “no binding (tested: 33.3 nM)”.

Take B13: the binding result is given as “no binding (tested: 33.3 nM)”.

A further experiment deals with T1, recombinant human TL1A. As to the kind of experiment: cell-based or functional assay.
Turning to B1, the “NFκB Bioassay IC50” value came out at 1.46 nM.

As to B2, the “NFκB Bioassay IC50” value came out at 1.37 nM.

Regarding B3, the “NFκB Bioassay IC50” value was 1.28 nM.

Take B4: the “NFκB Bioassay IC50” value stood at 1.49 nM.

As for B5, the “NFκB Bioassay IC50” value worked out at 1.35 nM.

For B6, the “NFκB Bioassay IC50” value worked out at 1.66 nM.

The target of another experiment is T4, bovine serum albumin (bovine, UniProt P02769 25-607).
T4 construct: also called BSA
T4 sequence (P02769 25-607 limits assumed): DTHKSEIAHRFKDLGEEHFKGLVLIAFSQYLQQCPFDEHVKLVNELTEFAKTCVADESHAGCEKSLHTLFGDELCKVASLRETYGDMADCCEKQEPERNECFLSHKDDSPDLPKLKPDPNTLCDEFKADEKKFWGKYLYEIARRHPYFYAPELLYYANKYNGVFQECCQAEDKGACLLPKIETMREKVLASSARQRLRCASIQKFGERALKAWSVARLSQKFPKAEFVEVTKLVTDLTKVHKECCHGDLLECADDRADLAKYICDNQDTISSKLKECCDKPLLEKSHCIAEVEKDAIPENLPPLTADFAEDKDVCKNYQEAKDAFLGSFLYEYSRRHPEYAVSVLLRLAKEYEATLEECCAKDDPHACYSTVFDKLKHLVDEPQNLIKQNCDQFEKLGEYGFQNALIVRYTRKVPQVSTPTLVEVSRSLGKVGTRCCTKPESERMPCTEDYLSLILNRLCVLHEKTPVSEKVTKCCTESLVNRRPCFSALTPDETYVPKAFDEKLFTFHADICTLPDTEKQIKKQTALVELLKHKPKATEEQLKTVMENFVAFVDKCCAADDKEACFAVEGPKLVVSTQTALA
As to the kind of experiment: direct binding ELISA on plate-coated BSA (1 ug/mL), anti-human IgG-Fc HRP, OD450. As to the method: as §1, §2
Regarding B1, the binding result is “no binding (tested: 1e-6 M)”.

With B2, the binding result is listed as “no binding (tested: 1e-6 M)”.

As for B3, the binding result is reported as “no binding (tested: 1e-6 M)”.

Consider B4, for which the binding result is “no binding (tested: 1e-6 M)”.

Regarding B5, the binding result was “no binding (tested: 1e-6 M)”.

Take B6: the binding result was “no binding (tested: 1e-6 M)”.
